Results on 94 variants are retold here after the supplement of paper PMC10567573.

B1: CDC14A (parent)
chain: LNLAMVYRYCCKLNKKLKSYSLSR
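Further: lentivirally expressed fusions sorted by FACS into six bins by GFP to DsRed ratio, PSI derived from sequencing read proportions per bin multiplied by bin number.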

In the series the parent is B1. As to the kind of experiment: protein stability index of a GFP-peptide fusion (GPS, HEK-293T) (PSI 1-6); higher = more stable. Particulars: c terminus: a fixed tail appended.
For LNLAMVYRYCCKLNKKLASYSLSR [K18A], the protein stability index turned out to be 2.11.
With LNLAMVYRYCCKLNKKLISYSLSR [K18I], the protein stability index worked out at 2.79.
LNLAMVYRYCCKLNKKLHSYSLSR [K18H]: the protein stability index stood at 2.96.
Consider LNLAMVYRYCCKLNKKLQSYSLSR [K18Q], for which the protein stability index is 1.97.
Under LNLAMVYRYCCKLNKKLNSYSLSR [K18N] stands 2.77; under LNLAMVYRYCCKLNKKLVSYSLSR [K18V], 2.46.
With LNLAMVYRYCCKLNKKLTSYSLSR [K18T], the protein stability index is 3.6.
Turning to LNLAMVYRYCCKLNKKLYSYSLSR [K18Y], the protein stability index amounted to 2.67.
For LNLAMVYRYCCKKNKKLKSYSLSR [L13K], the protein stability index was determined as 1.56.
In the case of LNLAMVYRYCCKCNKKLKSYSLSR [L13C], the protein stability index worked out at 2.79.
For LNLAMVYRYCCKANKKLKSYSLSR [L13A] the value was 2.92; for LNLAMVYRYCCKYNKKLKSYSLSR [L13Y], 2.32.
As for LNLAMVYRYCCKVNKKLKSYSLSR [L13V], the protein stability index amounted to 4.56.
As to LNLAMVYRYCCKLNEKLKSYSLSR [K15E], the protein stability index was 3.47.
LNLAMVYRYCCKLNPKLKSYSLSR [K15P]: the protein stability index was 2.32.
On to LNLAMVYRYCCKLNHKLKSYSLSR [K15H], for which the protein stability index amounted to 3.69.
LNLAMVYRYCCKLNQKLKSYSLSR [K15Q]: the protein stability index came to 4.63.
In the case of LNLAMVYRYCCKLNIKLKSYSLSR [K15I], the protein stability index was 3.62.
Consider LNLAMVYRYCCKLNNKLKSYSLSR [K15N], for which the protein stability index turned out to be 2.31.
Turning to LNLAMVYRYCCKLNDKLKSYSLSR [K15D], the protein stability index is 2.33.
For LNLAMVYRYCCKLNTKLKSYSLSR [K15T], the protein stability index came to 2.62.
Consider LNLAMVYRYCCKLNCKLKSYSLSR [K15C], for which the protein stability index is 4.37.
Under LNLAMVYRYCCKLNVKLKSYSLSR [K15V] stands 3.04; under LNLAMVQRYCCKLNKKLKSYSLSR [Y7Q], 2.71.
For LNLAMVNRYCCKLNKKLKSYSLSR [Y7N] the value was 2.46; for LNLAMVHRYCCKLNKKLKSYSLSR [Y7H], 2.68; for LNLAMVMRYCCKLNKKLKSYSLSR [Y7M], 1.91.
Take LNLAMVGRYCCKLNKKLKSYSLSR [Y7G]: the protein stability index amounted to 2.43.
Take LNLAMVFRYCCKLNKKLKSYSLSR [Y7F]: the protein stability index was determined as 3.48.
Consider LNLAMVARYCCKLNKKLKSYSLSR [Y7A], for which the protein stability index stood at 1.85.
Under LNLAMVTRYCCKLNKKLKSYSLSR [Y7T] stands 3.96; under LNLAMVIRYCCKLNKKLKSYSLSR [Y7I], 3.1; under LNLAMVPRYCCKLNKKLKSYSLSR [Y7P], 2.23.
Turning to LNLMMVYRYCCKLNKKLKSYSLSR [A4M], the protein stability index worked out at 3.12.
On to LNLWMVYRYCCKLNKKLKSYSLSR [A4W], for which the protein stability index was found to be 1.8.
Under LNLTMVYRYCCKLNKKLKSYSLSR [A4T] stands 2.15; under LNLLMVYRYCCKLNKKLKSYSLSR [A4L], 2.68; under LNLVMVYRYCCKLNKKLKSYSLSR [A4V], 2.74.
For the variant LNLNMVYRYCCKLNKKLKSYSLSR [A4N], the protein stability index amounted to 3.18.
Take LNLGMVYRYCCKLNKKLKSYSLSR [A4G]: the protein stability index was 3.33.
On to LNLCMVYRYCCKLNKKLKSYSLSR [A4C], for which the protein stability index is 3.81.
With LNLAMVYRYCCKLNKKLKSYSLSQ [R24Q], the protein stability index was determined as 4.16.
For LNLAMVYRYCCKLNKKLKSYSLSY [R24Y], the protein stability index came to 3.41.
With LNLAMVYRYCCKLNKKLKSYSLSC [R24C], the protein stability index stood at 3.05.
With LNLAMVYRYCCKLNKKLKSYSLSN [R24N], the protein stability index was 3.15.
With LNLAMVYRYCCKLNKKLKSYSLSE [R24E], the protein stability index is 2.72.
For LNLAMYYRYCCKLNKKLKSYSLSR [V6Y], the protein stability index came out at 2.45.
Turning to LNLAMDYRYCCKLNKKLKSYSLSR [V6D], the protein stability index was 2.05.
Turning to LNLAMFYRYCCKLNKKLKSYSLSR [V6F], the protein stability index was 5.59.
Consider LNLAMEYRYCCKLNKKLKSYSLSR [V6E], for which the protein stability index amounted to 1.76.
As to LNLAMNYRYCCKLNKKLKSYSLSR [V6N], the protein stability index turned out to be 1.63.
LNLAMGYRYCCKLNKKLKSYSLSR [V6G]: the protein stability index worked out at 1.73.
With LNLAAVYRYCCKLNKKLKSYSLSR [M5A], the protein stability index stood at 2.67.
Take LNLATVYRYCCKLNKKLKSYSLSR [M5T]: the protein stability index is 3.46.
For LNLAYVYRYCCKLNKKLKSYSLSR [M5Y], the protein stability index amounted to 3.21.
Under LNLAQVYRYCCKLNKKLKSYSLSR [M5Q] stands 1.56; under LNLAKVYRYCCKLNKKLKSYSLSR [M5K], 3.87; under LNLALVYRYCCKLNKKLKSYSLSR [M5L], 2.57.
Under LNLACVYRYCCKLNKKLKSYSLSR [M5C] stands 4.65; under LNLAWVYRYCCKLNKKLKSYSLSR [M5W], 3.48; under DNLAMVYRYCCKLNKKLKSYSLSR [L1D], 3.11.
With SNLAMVYRYCCKLNKKLKSYSLSR [L1S], the protein stability index is 3.71.
On to RNLAMVYRYCCKLNKKLKSYSLSR [L1R], for which the protein stability index was found to be 2.77.
Consider KNLAMVYRYCCKLNKKLKSYSLSR [L1K], for which the protein stability index came out at 2.73.
For the variant INLAMVYRYCCKLNKKLKSYSLSR [L1I], the protein stability index amounted to 3.18.
As to YNLAMVYRYCCKLNKKLKSYSLSR [L1Y], the protein stability index was found to be 2.49.
On to TNLAMVYRYCCKLNKKLKSYSLSR [L1T], for which the protein stability index amounted to 2.3.
Under HNLAMVYRYCCKLNKKLKSYSLSR [L1H] stands 2.26; under MNLAMVYRYCCKLNKKLKSYSLSR [L1M], 3.23; under CNLAMVYRYCCKLNKKLKSYSLSR [L1C], 3.72.
Under FNLAMVYRYCCKLNKKLKSYSLSR [L1F] stands 2.51.
For the variant LNLAMVYRYCCKLNKKLKSYSLGR [S23G], the protein stability index was found to be 2.2.
In the case of LNLAMVYRYCCKLNKKLKSYSLDR [S23D], the protein stability index was found to be 2.55.
LNLAMVYRYCCKLNKKLKSYSLCR [S23C]: the protein stability index is 2.49.
LNLAMVYRYCCKLNKKLKSYSLLR [S23L]: the protein stability index was determined as 2.37.
Under LNLAMVYRYCCKLNKKLKSYSLER [S23E] stands 4.66; under LNLAMVYRYCCKLNKKLKSYSLNR [S23N], 2.35.
For LNLAMVYRYCCKLNKKLKSYSLYR [S23Y] the value was 2.97; for LNLAMVYRYCCKLNKKLKSYSLAR [S23A], 3.5; for LNLAMVYRHCCKLNKKLKSYSLSR [Y9H], 2.48.
As for LNLAMVYRCCCKLNKKLKSYSLSR [Y9C], the protein stability index worked out at 2.59.
In the case of LNLAMVYRGCCKLNKKLKSYSLSR [Y9G], the protein stability index was 3.25.
With LNLAMVYRQCCKLNKKLKSYSLSR [Y9Q], the protein stability index was 3.9.
In the case of LNLAMVYRSCCKLNKKLKSYSLSR [Y9S], the protein stability index was determined as 2.19.
Under LNLAMVYRMCCKLNKKLKSYSLSR [Y9M] stands 1.81; under LNLAMVYRPCCKLNKKLKSYSLSR [Y9P], 1.41.
For LNLAMVYRRCCKLNKKLKSYSLSR [Y9R], the protein stability index worked out at 2.03.
For LNLAMVYRICCKLNKKLKSYSLSR [Y9I], the protein stability index amounted to 2.02.
On to LNLAMVYRVCCKLNKKLKSYSLSR [Y9V], for which the protein stability index came to 2.44.
As for LNLAMVYRYCKKLNKKLKSYSLSR [C11K], the protein stability index is 3.
As for LNLAMVYRYCDKLNKKLKSYSLSR [C11D], the protein stability index amounted to 2.85.
On to LNLAMVYRYCAKLNKKLKSYSLSR [C11A], for which the protein stability index is 2.73.
For LNLAMVYRYCEKLNKKLKSYSLSR [C11E] the value was 1.62; for LNLAMVYRYCRKLNKKLKSYSLSR [C11R], 2.64.
